# Data published in patent US20090298765A1 (Takeda / Millennium, published 2009).
# Like-named read-outs stand apart in the source and are kept apart here. Non-standard residues stand in square brackets, D forms with d. No end group written: not given here. *: point of attachment. Propanoyl(3-indol-3-yl) = O=C(CCc1c[nH]c2ccccc12)*; Phe(F5) = N[C@@H](Cc1c(F)c(F)c(F)c(F)c1F)C(=O)O; Propanoyl(3-(3-pyridyl)) = O=C(CCc1cccnc1)*; Phe(4-NH2) = Nc1ccc(C[C@H](N)C(=O)O)cc1; Arg(Me) = CNC(=N)NCCC[C@H](N)C(=O)O; 4Pal = N[C@@H](Cc1ccncc1)C(=O)O; d4Pal = N[C@H](Cc1ccncc1)C(=O)O; Cha = N[C@@H](CC1CCCCC1)C(=O)O; azaGly = NNC(=O)O
# B1: [Nal(1)10]MS10 (peptide)
# peptide: YNWNSFGLRX
# modifications: Nal(1)10; C-terminal amide
# notes: also called Compound No. 133
# B2: [Nal(2)10]MS10 (peptide)
# peptide: YNWNSFGLRX
# modifications: Nal(2)10; C-terminal amide
# notes: also called Compound No. 110
# B3: [Phe(F5)10]MS10 (peptide)
# peptide: YNWNSFGLR[Phe(F5)]-NH2
# notes: also called Compound No. 111
# B4: [Nle8]MS10 (peptide)
# peptide: YNWNSFGXRF
# modifications: Nle8; C-terminal amide
# notes: also called Compound No. 105
# B5: [Nal(2)6]MS10 (peptide)
# peptide: YNWNSXGLRF
# modifications: Nal(2)6; C-terminal amide
# notes: also called Compound No. 152
# B6: Leu-Pro-Asn-MS10 (peptide)
# peptide: LPNYNWNSFGLRF-NH2
# notes: also called Compound No. 32
# B7: [D-Tyr1,D-Asn2,Pya(4)3,AzaGly7,Arg(Me)9]MS10 (peptide)
# peptide: [dY][dN][4Pal]NSF[azaGly]L[Arg(Me)]F-NH2
# notes: also called Compound No. 303
# B8: des(1-3)-3-(3-Indolyl)propionyl-MS10 (peptide)
# peptide: {Propanoyl(3-indol-3-yl)}-NSFGLRF-NH2
# SMILES: CC(C)C[C@H](NC(=O)CNC(=O)[C@H](Cc1ccccc1)NC(=O)[C@H](CO)NC(=O)[C@H](CC(N)=O)NC(=O)CCc1c[nH]c2ccccc12)C(=O)N[C@@H](CCCNC(=N)N)C(=O)N[C@@H](Cc1ccccc1)C(N)=O
# notes: also called Compound No. 114
# B9: [Nal(1)6]MS10 (peptide)
# peptide: YNWNSXGLRF
# modifications: Nal(1)6; C-terminal amide
# notes: also called Compound No. 151
# B10: [D-Tyr1]MS10 (peptide)
# peptide: [dY]NWNSFGLRF-NH2
# B11: [D-Tyr1,Arg(Me)9]MS10 (peptide)
# peptide: [dY]NWNSFGL[Arg(Me)]F-NH2
# B12: [Trp10]MS10 (peptide)
# peptide: YNWNSFGLRW-NH2
# notes: also called Compound No. 134
# B13: [Tyr10]MS10 (peptide)
# peptide: YNWNSFGLRY-NH2
# notes: also called Compound No. 109
# B14: [Phe(4NH2)10]MS10 (peptide)
# peptide: YNWNSFGLR[Phe(4-NH2)]-NH2
# notes: also called Compound No. 131
# B15: [Cha10]MS10 (peptide)
# peptide: YNWNSFGLRX
# modifications: Cha10; C-terminal amide
# notes: also called Compound No. 112
# B16: [Pya(4)10]MS10 (peptide)
# peptide: YNWNSFGLRX
# modifications: Pya(4)10; C-terminal amide
# notes: also called Compound No. 17
# B17: [Cha6]MS10 (peptide)
# peptide: YNWNSXGLRF
# modifications: Cha6; C-terminal amide
# notes: also called Compound No. 156
# B18: [D-Tyr1,Pya(4)3,AzaGly7,Arg(Me)9]MS10 (peptide)
# peptide: [dY]N[4Pal]NSF[azaGly]L[Arg(Me)]F-NH2
# notes: also called Compound No. 286
# B19: [D-Trp3,Arg(Me)9]MS10 (peptide)
# peptide: YN[dW]NSFGL[Arg(Me)]F-NH2
# notes: also called Compound No. 143
# B20: [D-Tyr1,Cha3,Arg(Me)9]MS10 (peptide)
# peptide: [dY]N[Cha]NSFGL[Arg(Me)]F-NH2
# modifications: N-terminus assumed
# SMILES: CNC(=N)NCCC[C@H](NC(=O)[C@H](CC(C)C)NC(=O)CNC(=O)[C@H](Cc1ccccc1)NC(=O)[C@H](CO)NC(=O)[C@H](CC(N)=O)NC(=O)[C@H](CC1CCCCC1)NC(=O)[C@H](CC(N)=O)NC(=O)[C@H](N)Cc1ccc(O)cc1)C(=O)N[C@@H](Cc1ccccc1)C(N)=O
# notes: also called Compound No. 171
# B21: [D-Trp3]MS10 (peptide)
# peptide: YN[dW]NSFGLRF-NH2
# B22: des(1)-[D-Tyr2,D-Pya(4)3,AzaGly7,Arg(Me)9]MS10 (peptide)
# peptide: [dY][d4Pal]NSF[azaGly]L[Arg(Me)]F-NH2
# modifications: N-terminus assumed
# SMILES: CNC(=N)NCCC[C@H](NC(=O)[C@H](CC(C)C)NC(=O)NNC(=O)[C@H](Cc1ccccc1)NC(=O)[C@H](CO)NC(=O)[C@H](CC(N)=O)NC(=O)[C@@H](Cc1ccncc1)NC(=O)[C@H](N)Cc1ccc(O)cc1)C(=O)N[C@@H](Cc1ccccc1)C(N)=O
# notes: also called Compound No. 305; KiSS1-305
# B23: [Har9]MS10 (peptide)
# peptide: YNWNSFGLXF
# modifications: Har9; C-terminal amide
# notes: also called Compound No. 97
# B24: des(1-3)-3-(3-Pyridyl)propionyl-[AzaGly7,Arg(Me)9]MS10 (peptide)
# peptide: {Propanoyl(3-(3-pyridyl))}-NSF[azaGly]L[Arg(Me)]F-NH2
# SMILES: CNC(=N)NCCC[C@H](NC(=O)[C@H](CC(C)C)NC(=O)NNC(=O)[C@H](Cc1ccccc1)NC(=O)[C@H](CO)NC(=O)[C@H](CC(N)=O)NC(=O)CCc1cccnc1)C(=O)N[C@@H](Cc1ccccc1)C(N)=O
# notes: also called Compound No. 322
# Assays:
# [1] = target: T1, human OT7T175 (metastin receptor) (human, UniProt Q969F8 1-398); experiment: cell-based or functional assay
# [2] = target: human OT7T175 (metastin receptor) (human) (UniProt Q969F8); experiment: cell-based or functional assay
# [3] = target: human OT7T175 (metastin receptor) (human) (UniProt Q969F8); experiment: competition with Cy-5 metastin (40-54) on hOT7T175-CHO cells, FMAT
# [4] = target: T1, human OT7T175 (metastin receptor); experiment: cell-based or functional assay; remark: listed apart in the source
# [5] = target: T1, human OT7T175 (metastin receptor); experiment: competition with Cy-5 metastin (40-54) on hOT7T175-CHO cells, FMAT
# [6] = target: T1, human OT7T175 (metastin receptor); experiment: cell-based or functional assay; remark: listed apart in the source
# [7] = target: T1, human OT7T175 (metastin receptor); experiment: cell-based or functional assay; remark: listed apart in the source
# [8] = target: T1, human OT7T175 (metastin receptor); experiment: cell-based or functional assay; remark: listed apart in the source
# T1 sequence (Q969F8 whole entry L364H): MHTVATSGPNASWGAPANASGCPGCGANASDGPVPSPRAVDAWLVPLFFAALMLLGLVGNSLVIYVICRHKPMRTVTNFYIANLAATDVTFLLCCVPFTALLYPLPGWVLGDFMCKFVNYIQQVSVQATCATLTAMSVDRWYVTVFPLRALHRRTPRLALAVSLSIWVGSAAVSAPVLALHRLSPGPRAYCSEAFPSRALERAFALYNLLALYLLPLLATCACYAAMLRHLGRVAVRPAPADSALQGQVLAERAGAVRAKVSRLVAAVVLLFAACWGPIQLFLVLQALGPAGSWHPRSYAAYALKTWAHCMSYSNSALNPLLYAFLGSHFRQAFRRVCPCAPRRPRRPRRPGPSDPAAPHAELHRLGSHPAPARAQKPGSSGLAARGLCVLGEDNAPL
# Chain of human OT7T175 (metastin receptor) (human) (Q969F8 whole entry L364H): as above
Molecule,Ca ion level-increasing activity (FLIPR) [4],IC50 [5],"Ca ion level-increasing activity (FLIPR, 40 s) [6]",also measured
des(4-5)-MS10 (peptide),–,–,–,Ca ion level-increasing activity (FLIPR) (x Metastin (1-54)) [1]: 1
"[D-Tyr1,D-Asn2,D-Trp3,AzaGly7,Arg(Me)9]MS10 (peptide)",–,–,–,Ca ion level-increasing activity (FLIPR) (x Metastin (1-54)) [2]: 1; IC50 [3]: 49 nM
des(4-5)-Boc-MS10 (peptide),–,–,–,Ca ion level-increasing activity (FLIPR) (x Metastin (1-54)) [1]: 1
"[D-Tyr1,D-Asn2,D-Trp3,Arg(Me)9]MS10 (peptide)",–,–,–,Ca ion level-increasing activity (FLIPR) (x Metastin (1-54)) [2]: 1
B1,3 x Metastin (1-54),330 nM,–,–
B2,20 x Metastin (1-54),24 nM,–,–
B3,3 x Metastin (1-54),140 nM,–,–
B4,1 x Metastin (1-54),880 nM,–,–
B5,5 x Metastin (1-54),180 nM,1.4 EC50/MS10 EC50,–
B6,10 x Metastin (1-54),25 nM,–,–
B7,–,0.5 nM,6.9 EC50/MS10 EC50,"Ca ion level-increasing activity (FLIPR) [7]: 5 x Metastin (1-54); cell growth inhibition activity, IC50 [8]: 41.2 nM"
B8,3 x Metastin (1-54),550 nM,4.1 EC50/MS10 EC50,–
B9,1 x Metastin (1-54),300 nM,–,–
B10,30 x Metastin (1-54),–,1.6 EC50/MS10 EC50,–
B11,–,–,1.6 EC50/MS10 EC50,"cell growth inhibition activity, IC50 [8]: 87 nM"
B12,30 x Metastin (1-54),110 nM,0.5 EC50/MS10 EC50,–
B13,20 x Metastin (1-54),23 nM,2.6 EC50/MS10 EC50,–
B14,3 x Metastin (1-54),120 nM,–,–
B15,2 x Metastin (1-54),370 nM,–,–
B16,5 x Metastin (1-54),0.0066 nM,–,–
B17,2 x Metastin (1-54),49 nM,0.9 EC50/MS10 EC50,–
B18,–,17 nM,–,"Ca ion level-increasing activity (FLIPR) [7]: 2 x Metastin (1-54); cell growth inhibition activity, IC50 [8]: 18.3 nM"
B19,3 x Metastin (1-54),7.7 nM,–,–
B20,10 x Metastin (1-54),110 nM,–,–
B21,30 x Metastin (1-54),–,1.6 EC50/MS10 EC50,–
B22,–,1.3 nM,2 EC50/MS10 EC50,"Ca ion level-increasing activity (FLIPR) [7]: 5 x Metastin (1-54); cell growth inhibition activity, IC50 [8]: 8.94 nM"
B23,10 x Metastin (1-54),370 nM,2.9 EC50/MS10 EC50,–
B24,–,54 nM,5.4 EC50/MS10 EC50,"Ca ion level-increasing activity (FLIPR) [7]: 1 x Metastin (1-54); cell growth inhibition activity, IC50 [8]: 71.9 nM"
